Reference: article PMC9968290

What was measured:
[1] = target: C-terminally truncated zebrafish ortholog of the TREK1 channel (drTREK1), residues 1-322, N95Q, N122Q (D. rerio (zebrafish)); experiment: native MS; TREK1 in 200 mM ammonium acetate pH 8, 0.25 mM DDM, without lipid or with 0.1 mg/ml POPA or 0.025 mg/ml POPE; static nanospray on a Q-Exactive EMR
[2] = target: C-terminally truncated zebrafish ortholog of the TREK1 channel (drTREK1), residues 1-322, N95Q, N122Q (D. rerio (zebrafish)); experiment: cryo-EM structure; single particle cryo-EM of purified TREK1 at 3 mg/ml in DDM micelles (150 mM KCl, 20 mM Tris pH 8.0), without lipid or with POPA or POPE mixed micelles

stoichiometry N [1]: 2
stoichiometry N [2]: 2
Substance: C-terminally truncated zebrafish ortholog of the TREK1 channel (drTREK1), residues 1-322, N95Q, N122Q (natural protein)
